The record followed here is patent EP2651411B1.

The target of assay [1] is somatostatin receptors on AR42J cells (rat). As to the kind of experiment: apparent IC50; competition with ^111In(DTPA-octreotide) on AR42J cells, 3 h at RT.
In assay [2] the target is gastrin-releasing peptide receptor on PC-3 cells (UniProt P30550). As to the kind of experiment: competition with ^125I-BBN for binding to PC-3 cells, inhibitor 250 to 2 nM.
Assay [3] addresses carcinoembryonic antigen (CEA) (UniProt P06731). As to the kind of experiment: SEC-HPLC; the conjugate without CEA eluted at 10.312 min and 10.331 min in serum.
The target in assay [4] is gastrin-releasing peptide receptor on PC-3 cells (UniProt P30550). As to the kind of experiment: competition with ^125I-Bombesin for binding to 3x10^6 PC-3 cells, inhibitor 56 to 0.44 nM.

UniProt P30550, sequence (P30550 whole entry): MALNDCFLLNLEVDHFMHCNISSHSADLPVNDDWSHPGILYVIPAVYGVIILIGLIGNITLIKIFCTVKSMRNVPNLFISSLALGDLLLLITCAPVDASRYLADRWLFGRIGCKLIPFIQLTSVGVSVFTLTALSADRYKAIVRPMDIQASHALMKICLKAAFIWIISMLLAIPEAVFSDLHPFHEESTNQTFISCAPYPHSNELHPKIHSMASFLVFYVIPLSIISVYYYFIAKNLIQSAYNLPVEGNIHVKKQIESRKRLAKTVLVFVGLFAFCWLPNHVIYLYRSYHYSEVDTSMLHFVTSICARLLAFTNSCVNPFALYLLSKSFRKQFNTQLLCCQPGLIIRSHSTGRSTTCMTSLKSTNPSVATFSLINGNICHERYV
UniProt P06731, sequence (P06731 35-685 limits assumed): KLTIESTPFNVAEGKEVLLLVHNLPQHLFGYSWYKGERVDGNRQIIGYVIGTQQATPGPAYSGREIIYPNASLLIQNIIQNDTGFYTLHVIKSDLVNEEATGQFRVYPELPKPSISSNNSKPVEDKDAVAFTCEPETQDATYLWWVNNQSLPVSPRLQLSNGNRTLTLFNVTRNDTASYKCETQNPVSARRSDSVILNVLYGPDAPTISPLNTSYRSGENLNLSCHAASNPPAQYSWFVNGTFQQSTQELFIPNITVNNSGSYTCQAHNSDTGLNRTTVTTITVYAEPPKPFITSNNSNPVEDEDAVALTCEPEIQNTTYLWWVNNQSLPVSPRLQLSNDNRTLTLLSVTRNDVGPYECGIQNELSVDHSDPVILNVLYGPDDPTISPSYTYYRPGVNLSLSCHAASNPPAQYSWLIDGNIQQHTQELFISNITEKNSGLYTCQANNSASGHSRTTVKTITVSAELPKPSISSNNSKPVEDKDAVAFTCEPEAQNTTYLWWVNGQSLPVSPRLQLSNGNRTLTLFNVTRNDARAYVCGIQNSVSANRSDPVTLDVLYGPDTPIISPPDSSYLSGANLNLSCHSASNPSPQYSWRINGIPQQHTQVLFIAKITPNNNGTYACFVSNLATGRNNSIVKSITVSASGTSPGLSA

“Al^19F(IMP466) (Al^19F complex of NOTA-D-Phe-Cys-Phe-D-Trp-Lys-Thr-Cys-Throl) (peptide)”: the IC50 in assay [1] came out at 3.6 nM.

Regarding “^69Ga(IMP466) (^69Ga complex of NOTA-D-Phe-Cys-Phe-D-Trp-Lys-Thr-Cys-Throl) (peptide)”, the IC50 in assay [1] turned out to be 13 nM.

Consider “commercially available BBN peptide (bombesin positive control)”, for which the IC50 in assay [2] was determined as 24.4 nM.

On to ^115In(DTPA-octreotide) (peptide), for which, in assay [1], the IC50 turned out to be 6.3 nM.

Regarding Al^18F(NODA-MPAES)-hMN-14 Fab', in assay [3], the SEC-HPLC retention time of the major product after adding CEA is 7.21 min.

Take “IMP468 (NOTA-NH-(CH2)7CO-Gln-Trp-Val-Trp-Ala-Val-Gly-His-Leu-Met-NH2) (peptide)”: the IC50 in assay [2] came to 35.9 nM; in assay [4], 21.5 nM.
